Measured values as given in the Human Domainome abundance scans (Beltran et al. 2025).
± gives the uncertainty stated by the source.

Assay: abundance fitness (aPCA) (normalised: wild type 0, dead -1); higher = more abundant; growth selection in yeast, the domain comes from the species named
Conditions: Homo sapiens
Work on “Transcriptional activator Myb K171W, P10242” yielded an abundance fitness of -0.598 ± 0.091. In the case of “Transcriptional activator Myb K182C, P10242”, the abundance fitness is reported as -0.167 ± 0.11. “Transcriptional activator Myb K182D, P10242” gave an abundance fitness of -0.548 ± 0.1. In the case of “Transcriptional activator Myb K182E, P10242”, the abundance fitness is reported as 0.01 ± 0.062. For “Transcriptional activator Myb K182F, P10242”, the abundance fitness was -0.383 ± 0.16. Substance “Transcriptional activator Myb K182H, P10242” has an abundance fitness of -0.299 ± 0.16. In the case of “Transcriptional activator Myb K182I, P10242”, the abundance fitness is reported as -0.181 ± 0.14. For “Transcriptional activator Myb K182L, P10242”, the abundance fitness was -0.051 ± 0.068. With “Transcriptional activator Myb K182M, P10242” the abundance fitness was 0.037 ± 0.085. Substance “Transcriptional activator Myb K182N, P10242” has an abundance fitness of -0.177 ± 0.15. Work on “Transcriptional activator Myb K182P, P10242” yielded an abundance fitness of -0.678 ± 0.15. For “Transcriptional activator Myb K182Q, P10242”, the abundance fitness was 0.136 ± 0.12. Work on “Transcriptional activator Myb K182R, P10242” yielded an abundance fitness of 0.068 ± 0.056. For “Transcriptional activator Myb K182S, P10242”, the abundance fitness was -0.161 ± 0.069. “Transcriptional activator Myb K182T, P10242” gave an abundance fitness of -0.696 ± 0.14. “Transcriptional activator Myb K182V, P10242” gave an abundance fitness of -0.176 ± 0.058. For “Transcriptional activator Myb K182W, P10242”, the abundance fitness was -0.184 ± 0.076. In the case of “Transcriptional activator Myb K182Y, P10242”, the abundance fitness is reported as -0.253 ± 0.17. Work on “Transcriptional activator Myb K192A, P10242” yielded an abundance fitness of -0.247 ± 0.12. “Transcriptional activator Myb K192C, P10242” gave an abundance fitness of -0.024 ± 0.12. “Transcriptional activator Myb K192D, P10242” gave an abundance fitness of -0.448 ± 0.21. “Transcriptional activator Myb K192F, P10242” gave an abundance fitness of -0.301 ± 0.29. “Transcriptional activator Myb K192G, P10242” showed an abundance fitness of -0.219 ± 0.053. With “Transcriptional activator Myb K192H, P10242” the abundance fitness was -0.156 ± 0.2. Substance “Transcriptional activator Myb K192I, P10242” has an abundance fitness of -0.063 ± 0.14. In the case of “Transcriptional activator Myb K192L, P10242”, the abundance fitness is reported as 0.004 ± 0.095. “Transcriptional activator Myb K192M, P10242” showed an abundance fitness of -0.122 ± 0.16. “Transcriptional activator Myb K192N, P10242” gave an abundance fitness of -0.162 ± 0.43. Work on “Transcriptional activator Myb K192P, P10242” yielded an abundance fitness of -0.082 ± 0.12. In the case of “Transcriptional activator Myb K192Q, P10242”, the abundance fitness is reported as -0.337 ± 0.16. Work on “Transcriptional activator Myb K192R, P10242” yielded an abundance fitness of -0.04 ± 0.064. “Transcriptional activator Myb K192S, P10242” showed an abundance fitness of -0.074 ± 0.093. For “Transcriptional activator Myb K192T, P10242”, the abundance fitness was -0.232 ± 0.13. In the case of “Transcriptional activator Myb K192V, P10242”, the abundance fitness is reported as -0.207 ± 0.074. Substance “Transcriptional activator Myb K192W, P10242” has an abundance fitness of -0.334 ± 0.11. Substance “Transcriptional activator Myb K192Y, P10242” has an abundance fitness of -0.535 ± 0.17. Substance “Transcriptional activator Myb K204A, P10242” has an abundance fitness of 0.054 ± 0.091. In the case of “Transcriptional activator Myb K204C, P10242”, the abundance fitness is reported as -0.317 ± 0.12. Substance “Transcriptional activator Myb K204D, P10242” has an abundance fitness of -0.164 ± 0.15. In the case of “Transcriptional activator Myb K204E, P10242”, the abundance fitness is reported as -0.062 ± 0.11. For “Transcriptional activator Myb K204F, P10242”, the abundance fitness was -0.097 ± 0.19. Substance “Transcriptional activator Myb K204G, P10242” has an abundance fitness of -0.166 ± 0.11. “Transcriptional activator Myb K204H, P10242” gave an abundance fitness of -0.401 ± 0.39. For “Transcriptional activator Myb K204I, P10242”, the abundance fitness was -0.055 ± 0.16. In the case of “Transcriptional activator Myb K204L, P10242”, the abundance fitness is reported as -0.07 ± 0.18. With “Transcriptional activator Myb K204M, P10242” the abundance fitness was -0.111 ± 0.11. For “Transcriptional activator Myb K204N, P10242”, the abundance fitness was -0.153 ± 0.097. “Transcriptional activator Myb K204Q, P10242” gave an abundance fitness of 0.192 ± 0.19. In the case of “Transcriptional activator Myb K204R, P10242”, the abundance fitness is reported as 0.066 ± 0.12. “Transcriptional activator Myb K204T, P10242” showed an abundance fitness of -0.012 ± 0.13. Work on “Transcriptional activator Myb K204V, P10242” yielded an abundance fitness of -0.29 ± 0.22. In the case of “Transcriptional activator Myb K204W, P10242”, the abundance fitness is reported as -0.443 ± 0.11. Substance “Transcriptional activator Myb K204Y, P10242” has an abundance fitness of -0.16 ± 0.25. For “Transcriptional activator Myb L172A, P10242”, the abundance fitness was -0.291 ± 0.076. In the case of “Transcriptional activator Myb L172C, P10242”, the abundance fitness is reported as -0.268 ± 0.14. “Transcriptional activator Myb L172E, P10242” showed an abundance fitness of -0.177 ± 0.089. With “Transcriptional activator Myb L172F, P10242” the abundance fitness was -0.35 ± 0.24. For “Transcriptional activator Myb L172H, P10242”, the abundance fitness was -0.173 ± 0.14. Work on “Transcriptional activator Myb L172I, P10242” yielded an abundance fitness of -0.354 ± 0.16. Work on “Transcriptional activator Myb L172K, P10242” yielded an abundance fitness of -0.108 ± 0.1. For “Transcriptional activator Myb L172M, P10242”, the abundance fitness was -0.175 ± 0.09. “Transcriptional activator Myb L172N, P10242” showed an abundance fitness of -0.34 ± 0.14. Work on “Transcriptional activator Myb L172P, P10242” yielded an abundance fitness of -0.486 ± 0.19. For “Transcriptional activator Myb L172Q, P10242”, the abundance fitness was -0.117 ± 0.1. In the case of “Transcriptional activator Myb L172R, P10242”, the abundance fitness is reported as -0.279 ± 0.056. With “Transcriptional activator Myb L172S, P10242” the abundance fitness was -0.236 ± 0.085. “Transcriptional activator Myb L172T, P10242” showed an abundance fitness of -0.359 ± 0.11. “Transcriptional activator Myb L172V, P10242” showed an abundance fitness of -0.36 ± 0.073. “Transcriptional activator Myb L172W, P10242” showed an abundance fitness of -0.303 ± 0.089. “Transcriptional activator Myb L173A, P10242” gave an abundance fitness of -0.623 ± 0.11. With “Transcriptional activator Myb L173C, P10242” the abundance fitness was 0.012 ± 0.12. For “Transcriptional activator Myb L173D, P10242”, the abundance fitness was -0.958 ± 0.22. With “Transcriptional activator Myb L173E, P10242” the abundance fitness was -0.621 ± 0.088. In the case of “Transcriptional activator Myb L173G, P10242”, the abundance fitness is reported as -1.08 ± 0.11. “Transcriptional activator Myb L173I, P10242” gave an abundance fitness of 0.253 ± 0.44. “Transcriptional activator Myb L173M, P10242” showed an abundance fitness of -0.305 ± 0.12. With “Transcriptional activator Myb L173P, P10242” the abundance fitness was -0.656 ± 0.23. Work on “Transcriptional activator Myb L173Q, P10242” yielded an abundance fitness of -1.13 ± 0.25. “Transcriptional activator Myb L173R, P10242” showed an abundance fitness of -0.961 ± 0.078. Work on “Transcriptional activator Myb L173S, P10242” yielded an abundance fitness of -0.933 ± 0.11. “Transcriptional activator Myb L173T, P10242” gave an abundance fitness of -0.28 ± 0.12. “Transcriptional activator Myb L173V, P10242” showed an abundance fitness of -0.127 ± 0.093. With “Transcriptional activator Myb L173W, P10242” the abundance fitness was -0.968 ± 0.11. In the case of “Transcriptional activator Myb L173Y, P10242”, the abundance fitness is reported as -0.627 ± 0.31. For “Transcriptional activator Myb L199A, P10242”, the abundance fitness was -0.05 ± 0.062. “Transcriptional activator Myb L199C, P10242” showed an abundance fitness of -0.076 ± 0.1. Substance “Transcriptional activator Myb L199D, P10242” has an abundance fitness of 0.011 ± 0.12. Work on “Transcriptional activator Myb L199E, P10242” yielded an abundance fitness of -0.005 ± 0.081. Work on “Transcriptional activator Myb L199F, P10242” yielded an abundance fitness of -0.179 ± 0.097. With “Transcriptional activator Myb L199H, P10242” the abundance fitness was -0.228 ± 0.2. Substance “Transcriptional activator Myb L199I, P10242” has an abundance fitness of -0.056 ± 0.1. With “Transcriptional activator Myb L199K, P10242” the abundance fitness was 0.025 ± 0.083. In the case of “Transcriptional activator Myb L199M, P10242”, the abundance fitness is reported as -0.071 ± 0.095. For “Transcriptional activator Myb L199N, P10242”, the abundance fitness was 0.043 ± 0.14. “Transcriptional activator Myb L199P, P10242” gave an abundance fitness of -0.013 ± 0.1. “Transcriptional activator Myb L199Q, P10242” showed an abundance fitness of -0.152 ± 0.12. “Transcriptional activator Myb L199R, P10242” gave an abundance fitness of -0.045 ± 0.057. For “Transcriptional activator Myb L199S, P10242”, the abundance fitness was 0.041 ± 0.068. “Transcriptional activator Myb L199T, P10242” showed an abundance fitness of -0.043 ± 0.092. “Transcriptional activator Myb L199V, P10242” gave an abundance fitness of 0.032 ± 0.065. Substance “Transcriptional activator Myb L199W, P10242” has an abundance fitness of -0.167 ± 0.1. With “Transcriptional activator Myb L199Y, P10242” the abundance fitness was -0.175 ± 0.21. For “Transcriptional activator Myb M189A, P10242”, the abundance fitness was -0.343 ± 0.068. In the case of “Transcriptional activator Myb M189C, P10242”, the abundance fitness is reported as -0.311 ± 0.095. In the case of “Transcriptional activator Myb M189D, P10242”, the abundance fitness is reported as -0.384 ± 0.094. Work on “Transcriptional activator Myb M189F, P10242” yielded an abundance fitness of -0.045 ± 0.16. “Transcriptional activator Myb M189G, P10242” showed an abundance fitness of -0.268 ± 0.05. In the case of “Transcriptional activator Myb M189I, P10242”, the abundance fitness is reported as -0.313 ± 0.19.
